± gives the standard deviation of the averaged measurements.

For the series, the system named is VchCAST RNA-guided transposition machinery (E. coli BL21(DE3) host, lacZ target). Nature of the series: relative integration efficiency (T-RL orientation) vs wild-type transposon end (log2 (normalized fold change)); transposon end mutated: right end (5 bp flank + 75 bp right end); higher = more efficient transposition. The essentials: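 Co-transformation of E. coli BL21(DE3) combined a pUC57 mini-transposon donor, holding barcoded pools of 1549 left-end or 1849 right-end variants, with a T7-driven plasmid encoding a CRISPR array, tniQ-cas8-cas7-cas6 and tnsA-tnsB-tnsC. After plating with 0.1 mM IPTG at 37°C for 18 h, input plasmids and genomic integration junctions were PCR-amplified and Illumina-sequenced across two biological output replicates, with four reference barcodes. Relative integration efficiency is the normalised, log-transformed output/input barcode fold change.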
“ACATTTGTTTCGCCAACCATAAAATGATAATTACACCCATAAATTGATAATTATCACACCCATAAATTGATATTGCCTCTGATCATAGTCAGACCAACATTGCTACGACCCGTATTCGCACCGACAC”: the “relative integration efficiency (log2)” value is -1.72 ± 0.26.
Next, “ACATTTGTCGATACAACCATAAAATGATAATTACCACCCATACATTGATAATTATCACACCCATTTAACTATAACGCTCTGATCATAGTCAGACCAACATTGCTACGACCCGTATTCGCACCGACAC”: -2.37 ± 0.32.
Next, “ACATTTGTTGATACAACCATAAAATGAAAATTACACCCATAAATTGAAAATTATCACACCCATAAATTGAAATTGCCTCTGATCATAGTCAGACCAACATTGCTACGACCCGTATTCGCACCGACAC”: -1.13 ± 0.26.
Next, “ACATTTGTTGATACAACCATAAAATGATAATTACCCCCATCAATTGATAATTATCACACCCAATTTAACTATAACGCTCTGATCATAGTCAGACCAACATTGCTACGACCCGTATTCGCACCGACAC”: -2.23 ± 0.41; “ACATTTGTTGATACAACCATAAAATGATAATTACACCCATAAATTGATAATTATCACACCCATAAATTGATATTGCCTCTGTACCGTTCGTATAATGTATGCTATACCAAGTTATTCGCACCGACAC”: -0.351 ± 0.19; “ACATTTGTTGATACAACCATAAAATGATAATTAATAACACCCATAAATTGATAATTATCACACCCATAAATTGATATTGCCTCTGATCATAGTCAGACCAACATTGCTACGACCCGTATTCGCACCG”: -3.16 ± 0.3.
With “ACATTTGTTGATACACCCATAAATTGATAATTACAACCATAAGTTGATATTTTTCACACCCATAAATTGATATTGCCTCTGATCATAGTCAGACCAACATTGCTACGACCCGTATTCGCACCGACAC”, the “relative integration efficiency (log2)” value was -0.708 ± 0.17.
In the case of “ACATTTGTTGATACAACCATTAAATGATAATTCCACCCATACATTGATAATTATCACACCCAATTTAACTATAACGCTCTGATCATAGTCAGACCAACATTGCTACGACCCGTATTCGCACCGACAC”, the “relative integration efficiency (log2)” value is -2.63 ± 0.34.
Next, “ACATTTGTTGATACAACCATAATATGATAATTACACCCATAATTTGATAATTATCACACCCATAATTTGATATTGCCTCTGATCATAGTCAGACCAACATTGCTACGACCCGTATTCGCACCGACAC”: -0.262 ± 0.035; “ACATTTGTTGATACAACCATATAATGATAATAACACCGATAAAATGATAATTATCACACCCAATTTAACTATAACGCTCTGATCATAGTCAGACCAACATTGCTACGACCCGTATTCGCACCGACAC”: -1.46 ± 0.28; “ACATTTGTTGATACAACCATACCATGATAATTACACCCATAAATTGATAATTATCACACCCATAAATTGATATTGCCTCTGATCATAGTCAGACCAACATTGCTACGACCCGTATTCGCACCGACAC”: -1.34 ± 0.079.
Next, “ACATTTGTTGATACAACCATAAAATGATAATTAATAATTATTTATAATCAGCAACTTAACCACAAAACACCCATAAATTGATAATTATCAACAAACGCCCGGTCGCGGTACTCTGATCATAGTCAGA”: -4.43 ± 0.39; “ACATTTGTTGATACAACCATAAAATGATCATTCACCCCTAAATTGATAATTATCACACCCACATTTAACTATAACGCTCTGATCATAGTCAGACCAACATTGCTACGACCCGTATTCGCACCGACAC”: -4.31 ± 0.082.
With “ACATTTGTTGATAAAACCATAAAATGATAATTAAACCCATAAATTGATAATTATCAAACCCATAAATTGATATTGCCTCTGATCATAGTCAGACCAACATTGCTACGACCCGTATTCGCACCGACAC”, the “relative integration efficiency (log2)” value was -0.472 ± 0.18.
Next, “ACATTTGTTGATACAACCATAAAATGATAAGTACACCCATAAATTGATAAGTATCACACCCATAAATTGATATGGCCTCTGATCATAGTCAGACCAACATTGCTACGACCCGTATTCGCACCGACAC”: -0.35 ± 0.029; “ACATTTGTCGATACAACCATAAAACGATAATTACACCCATAAATTGATCATTATCACACCCAATTTAACTATAACGCTCTGATCATAGTCAGACCAACATTGCTACGACCCGTATTCGCACCGACAC”: -1.88 ± 0.3.
Next, “ACATTTGTTGATACACCCATAAATTGATATTGCCAACCATAAAGTGATATTTATCACACCCATAAATTGATAATTACTCTGATCATAGTCAGACCAACATTGCTACGACCCGTATTCGCACCGACAC”: -0.649 ± 0.14; “ACATTTGTTGATACACCCATAAATTGATAATTACAACCATAAAGTGATATTTATCACAACCATAAGTTGATATTTTCTCTGATCATAGTCAGACCAACATTGCTACGACCCGTATTCGCACCGACAC”: -0.418 ± 0.21; “ACATTTGTTGATACAACCATAAAATGATAATTACTCTGATCATAGTCAGACCAACATTGCTACGACCCCACCCATAAATTGATAATTATCACACCCATAAATTGATATTGCGTATTCGCACCGACAC”: -3.23 ± 0.04.
Consider “ACATTTGTTGATACAACCATAAAATGATAATTACAACCATAAAATGATAATTATCAGTGGGTATTTAACTATAACGCTCTGATCATAGTCAGACCAACATTGCTACGACCCGTATTCGCACCGACAC”, for which the “relative integration efficiency (log2)” value was -0.267 ± 0.21.
Next, “ACATTTGTTGATACAACCATAAAATCATCATTCACCCATAAATTGATAATTATCACACCCACATTTAACTATAACGCTCTGATCATAGTCAGACCAACATTGCTACGACCCGTATTCGCACCGACAC”: -5.68 ± 0.095; “ACATTTGTTCATACAACCCTAAAATGATAATTACACCCATAAATTGATAATTATCACCCCCAATTTAACTATAACGCTCTGATCATAGTCAGACCAACATTGCTACGACCCGTATTCGCACCGACAC”: -2.74 ± 0.42.
Next, “CAAAATGTAAAAAAAACCATACGTTGATTTTACGAAACCATACGCTGAAATAATCACAACCATACCTTGAAATTGCTTATAAAGTGTACAACACTTGAGAAAGTTTACTACAGGTATGCACCGACAC”: under -10.
Next, “ACATTTGTTGATACAACCATAAAATGATAATTACACCCATAAATTGATAATTATGTGTCCCATAAATTGATATTGCCTCTGATCATAGTCAGACCAACATTGCTACGACCCGTATTCGCACCGACAC”: -0.725 ± 0.24; “ACATTTGTTGATACAACCATAAAATGATAAGGACACCCATAAATTGATAATTATCACACCCATAAATTGATATTGCCTCTGATCATAGTCAGACCAACATTGCTACGACCCGTATTCGCACCGACAC”: -0.956 ± 0.034.
